In patent US20210079060A1:

Legend:
[1] = target: yeast-displayed wild-type CD19 (extracellular domain) (human) (UniProt P15391); assay: flow cytometry, yeast display, CD19-Aga2p, 22 °C pre-treat; mAb binding against CD19 per yeast
[2] = target: yeast-displayed wild-type CD19 (extracellular domain) (human) (UniProt P15391); assay: flow cytometry, yeast display, Aga2p-CD19, 22 °C pre-treat; mAb binding against CD19 per yeast
CD19-FnEGFR (FIG. 15A) [3] = assay: flow cytometry, yeast display, left panel; FMC63 + GaM-A647 (FL4-A) against biotin-EGFR + strep-A488 (FL1-A); Q8 64.9 also printed
CD19-scFvHER2 (FIG. 15A) [4] = assay: flow cytometry, yeast display, right panel; FMC63 + GaM-A647 (FL4-A) against biotin-HER2 + strep-A488 (FL1-A)
CD19-scFvHER2 (FIG. 15A) [5] = assay: flow cytometry, yeast display, right panel; FMC63 + GaM-A647 (FL4-A) against biotin-HER2 + strep-A488 (FL1-A); Q8 30.1 also printed
CD19-FnEGFR (FIG. 15A) [6] = assay: flow cytometry, yeast display, left panel; FMC63 + GaM-A647 (FL4-A) against biotin-EGFR + strep-A488 (FL1-A)

yeast-displayed wild-type CD19 (extracellular domain) (human), sequence (P15391 20-291): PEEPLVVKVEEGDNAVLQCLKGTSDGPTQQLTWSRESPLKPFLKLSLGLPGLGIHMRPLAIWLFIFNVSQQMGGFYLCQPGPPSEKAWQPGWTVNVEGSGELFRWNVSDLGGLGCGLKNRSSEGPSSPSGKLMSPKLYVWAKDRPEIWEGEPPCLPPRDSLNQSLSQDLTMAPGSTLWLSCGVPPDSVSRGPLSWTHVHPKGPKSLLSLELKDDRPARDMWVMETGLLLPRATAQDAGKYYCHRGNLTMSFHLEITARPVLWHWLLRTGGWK

Row | percent of yeast in gate R8 (CD19-displaying, no mAb signal; taken as the lower dashed gate) [1] | percent of yeast in gate R7 (CD19-displaying, no mAb signal; taken as the lower dashed gate) [2] | Q5, percent of events positive for FMC63 and negative for biotin-target (CD19-FnEGFR (FIG. 15A) [3]) | Q6, percent of events positive for FMC63 and biotin-target (CD19-scFvHER2 (FIG. 15A) [4]) | Q5, percent of events positive for FMC63 and negative for biotin-target (CD19-scFvHER2 (FIG. 15A) [5]) | Q6, percent of events positive for FMC63 and biotin-target (CD19-FnEGFR (FIG. 15A) [6]) | Substance
1 | 51.6% | 37.2% | – | – | – | – | 4G7 (antibody)
2 | – | – | 35.1 | 35.1 | 31.8 | 0.034 | FMC63 (antibody)
